B1: huOKT3 IgG1-aGlyco (antibody, V domains shown)
VH: QVQLVQSGGGVVQPGRSLRLSCKASGYTFTRYTMHWVRQAPGKGLEWIGYINPSRGYTNYNQKFKDRFTISRDNSKNTAFLQMDSLRPEDTGVYFCARYYDDHYCLDYWGQGTPVTVSS
VL: DIQMTQSPSSLSASVGDRVTITCSASSSVSYMNWYQQTPGKAPKRWIYDTSKLASGVPSRFSGSGSGTDYTFTISSLQPEDIATYYCQQWSSNPFTFGQGTKLQITR

Legend:
[1] = biological target: EGFR (human) (UniProt P00533); assay: flow cytometry on PCI-30 cells; main peak between 10^2 and 10^3 with a tail toward the control; 'No antibody' panel shows 13.1
[2] = biological target: EGFR (human) (UniProt P00533); assay: flow cytometry on U2OS cells; histogram shifted to between 10^1 and 10^2, partly overlapping the control; 'No antibody' panel shows 6.17
[3] = biological target: EGFR (human) (UniProt P00533); assay: flow cytometry on HeLa cells; histogram shifted to between 10^2 and 10^3; 'No antibody' panel shows 5.56
[4] = biological target: antigen CD3 (Biacore); assay: SPR (Biacore), antigen CD3

Row | Molecule | MFI [1] | MFI [2] | MFI [3] | Kd [4] [nM] | koff [4] [s⁻¹] | kon [4] [M⁻¹ s⁻¹]
1 | EGFR 528 (phb 704) (antibody) | 388 | 26.8 | 586 |  |  | 
2 | B1 |  |  |  | 64.6 | 0.109 | 1.68e+06

— patent US20170210819A1
